Test results from article PMC8723827 (2022).

Biological target: His-tagged SARS-CoV-2 RBD (early pandemic, Wuhan) (SARS-CoV-2, UniProt P0DTC2)
Assay: SPR

Row | Binder | koff [s⁻¹]
1 | EY6A mAb (IgG) (antibody, V domains shown) VH: EVQLVESGGGVVQPGRSLRLSCAASAFTFSSYDMHWVRQAPGKGLEWVAVISYDGSNKYYADSVKGRFTISRDNSKNTLYLQMNSLRAEDTAVYYCAKDGGKLWVYYFDYWGQGTLVTVSS VL: not shown | 0.0048
2 | Beta-55 mAb (IgG) (antibody, V domains shown) VH: QVQLQESGPGLVKPSETLSLTCTVSGDSISSSRYYWGWIRQPPGKGLEWIGTFYYSGITYYNPSLKSRVTIFVDTSKNQFSLKLSSVTAADTAVYYCARPRPPDYYDNSGALLFDIWGQGTMVTVSS VL: AIRMTQSPSTLSASVGDRVTIACRASQSISAWLAWYQQKPGKAPKLLIYKASSLESGVPSRFSGSGSGTEFTLTINSLQPDDFATYYCQQYISSSPWTFGQGTKVEIK | 0.00018
